Molecular target: microtubules polymerised from bovine brain tubulin (bovine) (UniProt Q6B856)
Assay: TIRF microscopy of binding to immobilised microtubules

augmin octamer lacking the N-terminal MTBR of Haus8 (residues 1-154) (from UniProt Q0IHJ3;Q6DCY9) (complex)
reduction in MT binding against wildtype augmin: 50%

— paper PMC12578939
